Measured values published in patent US20220042026A1 (UNIVERSITY COURT OF THE UNIVERSITY OF GLASGOW, published 2022).

Biological target: the molecule itself
Test: immunoblot of unboiled N. benthamiana leaf extract, SDS-PAGE, anti-Kcv detection

B1: Blue Light-INduced K+ channel 1 (BLINK1) (other)
chain: MGCTVSAELATTLERIEKNFVITDPRLPDNPIIFASDSFLQLTEYSREEILGRNCRFLQGPETDRATVRKIRDAIDNQTEVTVQLINYTKSGKKFWNLFHLQPMRDQKGDVQYFIGVQLDGTEHVRDAAEREGVMLIKKTAEVFSKFLTRTEPFMIHLFILAMFVMIYKFFPGGFENNFSVANPDKKASWIDCIYFGVTTHSTVGFGDILPKTTGAKLCTIAHIVTVFFIVLTL
notes: Expressed transiently under the CaMV 35S promoter in N. benthamiana leaves; Unboiled total protein extract was run on SDS-PAGE; The tetramer was detected, with an expected Mw of 106.5 kDa; also called synthetic, blue light-gated K+ channel
B1: binds.
